Measured values: patent US20150297748A1 (Daiichi Sankyo, published 2015)

T1: CD70 (UniProt P32970 1-193, limits assumed)
T1 sequence (looked up): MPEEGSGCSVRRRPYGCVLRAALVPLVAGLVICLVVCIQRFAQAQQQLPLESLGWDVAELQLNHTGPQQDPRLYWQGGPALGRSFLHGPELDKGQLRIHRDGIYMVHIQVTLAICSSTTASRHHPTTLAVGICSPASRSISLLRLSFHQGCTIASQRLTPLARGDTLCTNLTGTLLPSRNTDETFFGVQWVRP

T2: human B7-H3 variant 1 (human, UniProt Q5ZPR3 27-534)
T2 construct: also called 4Ig-B7-H3
T2 sequence: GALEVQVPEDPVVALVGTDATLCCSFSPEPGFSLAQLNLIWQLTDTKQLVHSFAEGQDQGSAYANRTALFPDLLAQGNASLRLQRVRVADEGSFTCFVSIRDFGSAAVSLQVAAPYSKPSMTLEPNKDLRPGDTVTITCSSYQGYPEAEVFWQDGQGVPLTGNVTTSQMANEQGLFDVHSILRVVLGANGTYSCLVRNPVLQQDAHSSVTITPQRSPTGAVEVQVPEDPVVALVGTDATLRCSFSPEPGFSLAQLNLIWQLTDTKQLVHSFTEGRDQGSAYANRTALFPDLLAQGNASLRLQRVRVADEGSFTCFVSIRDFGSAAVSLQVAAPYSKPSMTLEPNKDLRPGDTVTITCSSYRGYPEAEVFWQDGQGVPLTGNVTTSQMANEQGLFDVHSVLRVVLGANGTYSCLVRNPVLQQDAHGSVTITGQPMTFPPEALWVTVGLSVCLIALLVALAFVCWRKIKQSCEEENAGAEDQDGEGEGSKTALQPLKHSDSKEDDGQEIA

T3: CD30 (UniProt P28908 19-595, limits assumed)
T3 sequence (looked up): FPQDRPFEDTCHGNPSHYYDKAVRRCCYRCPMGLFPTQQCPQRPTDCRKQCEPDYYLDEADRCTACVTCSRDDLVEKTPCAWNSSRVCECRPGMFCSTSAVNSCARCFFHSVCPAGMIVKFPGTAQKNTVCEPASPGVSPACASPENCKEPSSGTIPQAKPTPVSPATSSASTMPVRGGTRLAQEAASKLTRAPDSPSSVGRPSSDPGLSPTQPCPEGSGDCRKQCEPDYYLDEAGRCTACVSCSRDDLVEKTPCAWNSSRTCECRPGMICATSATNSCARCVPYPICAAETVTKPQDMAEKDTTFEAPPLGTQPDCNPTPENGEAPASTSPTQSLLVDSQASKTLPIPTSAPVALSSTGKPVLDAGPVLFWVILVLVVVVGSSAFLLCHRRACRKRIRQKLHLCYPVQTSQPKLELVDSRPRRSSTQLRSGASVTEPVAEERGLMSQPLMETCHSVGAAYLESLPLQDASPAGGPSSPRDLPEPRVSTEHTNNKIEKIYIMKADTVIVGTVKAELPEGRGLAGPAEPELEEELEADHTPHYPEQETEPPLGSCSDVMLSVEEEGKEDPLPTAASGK

B1: Antibody-drug conjugate (10) (antibody, V domains shown)
VH: QVQLVQSGAEVKKPGASVKVSCKASGYTFTNYGMNWVRQAPGQGLKWMGWINTYTGEPTYADAFKGRVTMTRDTSISTAYMELSRLRSDDTAVYYCARDYGDYGMDYWGQGTTVTVSS
VL: DIVMTQSPDSLAVSLGERATINCRASKSVSTSGYSFMHWYQQKPGQPPKLLIYLASNLESGVPDRFSGSGSGTDFTLTISSLQAEDVAVYYCQHSREVPWTFGQGTKVEIKR
modifications: drug-linker 6-maleimidohexanoyl-GGFG-NH-(CH2)3-C(=O)-exatecan (compound of Process 3 of Example 2) on cysteines of the reduced hinge disulfide bonds; average 3.2 per antibody molecule; positions not given
B2: Antibody-drug conjugate (11) (antibody, V domains shown)
VH: B1 VH
VL: B1 VL
modifications: drug-linker 6-maleimidohexanoyl-GGFG-NH-(CH2)3-C(=O)-exatecan (compound of Process 3 of Example 2) on cysteines of the reduced hinge disulfide bonds; average 3.6 per antibody molecule; positions not given
B3: M30 antibody (antibody, mouse IgG2a, kappa, V domains shown)
VH: EVQLQQSGPELVKPGASVKMSCKASGYTFTNYVMHWVKQKPGQGLEWIGYINPYNDDVKYNEKFKGKATQTSDKSSSTAYMELSSLTSEDSAVYYCARWGYYGSPLYYFDYWGQGTTLTVSS
VL: QIVLSQSPTILSASPGEKVTMTCRASSRLIYMHWYQQKPGSSPKPWIYATSNLASGVPARFSGSGSGTSYSLTISRVEAEDAATYYCQQWNSNPPTFGTGTKLELKR
notes: Mouse monoclonal antibody produced by the B7-H3 hybridoma M30
B4: Antibody-drug conjugate (8) (antibody, V domains shown)
VH: EVQLVQSGAEVKKPGSSVKVSCKASGYTITDSNIHWVRQAPGQSLEWIGYIYPYNGGTDYNQKFKNRATLTVDNPTNTAYMELSSLRSEDTAFYYCVNGNPWLAYWGQGTLVTVSS
VL: DIQLTQSPSTLSASVGDRVTITCRASQSLDNYGIRFLTWFQQKPGKAPKLLMYAASNQGSGVPSRFSGSGSGTEFTLTISSLQPDDFATYYCQQTKEVPWSFGQGTKVEVKR
modifications: drug-linker 6-maleimidohexanoyl-GGFG-NH-(CH2)3-C(=O)-exatecan (compound of Process 3 of Example 2) on cysteines of the reduced hinge disulfide bonds; average 3.4 per antibody molecule; positions not given
B5: Antibody-drug conjugate (25) (antibody, V domains shown)
VH: B4 VH
VL: B4 VL
modifications: drug-linker 3-maleimidopropanoyl-NH-(CH2CH2O)2-CH2CH2-C(=O)-GGFG-NH-(CH2)3-C(=O)-exatecan (compound of Process 1 of Example 14) on cysteines of the reduced hinge disulfide bonds; average 7.3 per antibody molecule; positions not given
B6: Antibody-drug conjugate (9) (antibody, V domains shown)
VH: B4 VH
VL: B4 VL
modifications: drug-linker 6-maleimidohexanoyl-GGFG-NH-(CH2)3-C(=O)-exatecan (compound of Process 3 of Example 2) on cysteines of the reduced hinge disulfide bonds; average 3.7 per antibody molecule; positions not given
B7: Antibody-drug conjugate (5) (antibody, human IgG1, kappa, V domains shown)
VH: QVQLVQSGAEVKKPGSSVKVSCKASGYTFTNYVMHWVRQAPGQGLEWMGYINPYNDDVKYNEKFKGRVTITADESTSTAYMELSSLRSEDTAVYYCARWGYYGSPLYYFDYWGQGTLVTVSS
VL: EIVLTQSPATLSLSPGERATLSCRASSRLIYMHWYQQKPGQAPRPLIYATSNLASGIPARFSGSGSGTDFTLTISSLEPEDFAVYYCQQWNSNPPTFGQGTKVEIKR
modifications: drug-linker 6-maleimidohexanoyl-GGFG-NH-(CH2)3-C(=O)-exatecan (compound of Process 3 of Example 2) on cysteines of the reduced hinge disulfide bonds; average 6.7 per antibody molecule; positions not given
B8: Antibody-drug conjugate (45) (antibody, human IgG1, kappa, V domains shown)
VH: B7 VH
VL: B7 VL
modifications: drug-linker 6-maleimidohexanoyl-GGFG-NH-CH2CH2-O-CH2-C(=O)-exatecan (compound of Process 3 of Example 43) on cysteines of the reduced hinge disulfide bonds; average 3.7 per antibody molecule; positions not given
B9: Antibody-drug conjugate (46) (antibody, human IgG1, kappa, V domains shown)
VH: B7 VH
VL: B7 VL
modifications: drug-linker 6-maleimidohexanoyl-GGFG-NH-CH2CH2-O-CH2-C(=O)-exatecan (compound of Process 3 of Example 43) on cysteines of the reduced hinge disulfide bonds; average 5.2 per antibody molecule; positions not given
B10: Antibody-drug conjugate (32) (antibody, human IgG1, kappa, V domains shown)
VH: B7 VH
VL: B7 VL
modifications: drug-linker from N-(bromoacetyl)-beta-alanyl-GGFG-NH-(CH2)3-C(=O)-exatecan (compound of Process 3 of Example 30) on cysteines of the reduced hinge disulfide bonds; average 6.0 per antibody molecule; positions not given
B11: Antibody-drug conjugate (54) (antibody, human IgG1, kappa, V domains shown)
VH: B7 VH
VL: B7 VL
modifications: drug-linker 6-maleimidohexanoyl-GGFG-NH-(CH2)5-C(=O)-exatecan (compound of Process 5 of Example 54) on cysteines of the reduced hinge disulfide bonds; average 3.0 per antibody molecule; positions not given
B12: Antibody-drug conjugate (44) (antibody, human IgG1, kappa, V domains shown)
VH: B7 VH
VL: B7 VL
modifications: drug-linker 6-maleimidohexanoyl-GGFG-NH-CH2CH2-O-CH2-C(=O)-exatecan (compound of Process 3 of Example 43) on cysteines of the reduced hinge disulfide bonds; average 6.6 per antibody molecule; positions not given
B13: Antibody-drug conjugate (21) (antibody, human IgG1, kappa, V domains shown)
VH: B7 VH
VL: B7 VL
modifications: drug-linker 3-maleimidopropanoyl-NH-(CH2CH2O)2-CH2CH2-C(=O)-GGFG-NH-(CH2)3-C(=O)-exatecan (compound of Process 1 of Example 14) on cysteines of the reduced hinge disulfide bonds; average 5.5 per antibody molecule; positions not given
B14: Antibody-drug conjugate (16) (antibody, human IgG1, kappa, V domains shown)
VH: B7 VH
VL: B7 VL
modifications: drug-linker 3-maleimidopropanoyl-NH-(CH2CH2O)2-CH2CH2-C(=O)-GGFG-NH-(CH2)3-C(=O)-exatecan (compound of Process 1 of Example 14) on cysteines of the reduced hinge disulfide bonds; average 6.5 per antibody molecule; positions not given
B15: Antibody-drug conjugate (52) (antibody, human IgG1, kappa, V domains shown)
VH: B7 VH
VL: B7 VL
modifications: drug-linker 6-maleimidohexanoyl-GGFG-NH-(CH2)5-C(=O)-exatecan (compound of Process 5 of Example 54) on cysteines of the reduced hinge disulfide bonds; average 3.1 per antibody molecule; positions not given
B16: Antibody-drug conjugate (6) (antibody, human IgG1, kappa, V domains shown)
VH: QIQLQQSGPEVVKPGASVKISCKASGYTFTDYYITWVKQKPGQGLEWIGWIYPGSGNTKYNEKFKGKATLTVDTSSSTAFMQLSSLTSEDTAVYFCANYGNYWFAYWGQGTQVTVSA
VL: DIVLTQSPASLAVSLGQRATISCKASQSVDFDGDSYMNWYQQKPGQPPKVLIYAASNLESGIPARFSGSGSGTDFTLNIHPVEEEDAATYYCQQSNQDPWTFGGGTKLEIKR
modifications: drug-linker 6-maleimidohexanoyl-GGFG-NH-(CH2)3-C(=O)-exatecan (compound of Process 3 of Example 2) on cysteines of the reduced hinge disulfide bonds; average 3.3 per antibody molecule; positions not given
B17: Antibody-drug conjugate (64) (antibody, V domains shown)
VH: B16 VH
VL: B16 VL
modifications: drug-linker 6-maleimidohexanoyl-GGFG-NH-CH2-O-CH2-C(=O)-exatecan (compound of Process 8 of Example 58) on cysteines of the reduced hinge disulfide bonds; average 3.7 per antibody molecule; positions not given
B18: Antibody-drug conjugate (7) (antibody, V domains shown)
VH: B16 VH
VL: B16 VL
modifications: drug-linker 6-maleimidohexanoyl-GGFG-NH-(CH2)3-C(=O)-exatecan (compound of Process 3 of Example 2) on cysteines of the reduced hinge disulfide bonds; average 3.8 per antibody molecule; positions not given
B19: Antibody-drug conjugate (23) (antibody, V domains shown)
VH: B16 VH
VL: B16 VL
modifications: drug-linker 3-maleimidopropanoyl-NH-(CH2CH2O)2-CH2CH2-C(=O)-GGFG-NH-(CH2)3-C(=O)-exatecan (compound of Process 1 of Example 14) on cysteines of the reduced hinge disulfide bonds; average 7.1 per antibody molecule; positions not given
B20: Antibody-drug conjugate (38) (antibody, V domains shown)
VH: B16 VH
VL: B16 VL
modifications: drug-linker from the N-succinimidyl ester of suberoyl-GGFG-NH-(CH2)3-C(=O)-exatecan (compound of Process 1 of Example 37); average 2.7 per antibody molecule; chain and positions not stated
B21: Antibody-drug conjugate (65) (antibody, V domains shown)
VH: B16 VH
VL: B16 VL
modifications: drug-linker 6-maleimidohexanoyl-GGFG-NH-CH2-O-CH2-C(=O)-exatecan (compound of Process 8 of Example 58) on cysteines of the reduced hinge disulfide bonds; average 6.8 per antibody molecule; positions not given
B22: Antibody-drug conjugate (22) (antibody, V domains shown)
VH: B16 VH
VL: B16 VL
modifications: drug-linker 3-maleimidopropanoyl-NH-(CH2CH2O)2-CH2CH2-C(=O)-GGFG-NH-(CH2)3-C(=O)-exatecan (compound of Process 1 of Example 14) on cysteines of the reduced hinge disulfide bonds; average 2.5 per antibody molecule; positions not given

How the values were obtained:
CD70 = target: T1, CD70; test: cell-based or functional assay
human B7-H3 variant 1 [1] = target: T2, human B7-H3 variant 1; test: flow cytometry: 10 µg/mL M30 on CCRF-CEM clones transfected with pcDNA3.1-B7-H3, detected with fluorescein-conjugated goat anti-mouse IgG
Method: Flow cytometry was used for confirming B7-H3 expression in each recovered clone. Specifically, each recovered clone was washed twice with PBS containing 5% FBS, thereafter suspended by the addition of PBS containing 5% FBS and 10 μg/mL M30, and left standing at 4° C. for 30 minutes. The clone was washed twice with PBS containing 5% FBS, thereafter suspended by the addition of Fluorescein-conjugated goat IgG fraction to mouse IgG (Whole Molecule) (455493, manufactured by ICN Pharmaceuticals, Inc.) diluted 1000-fold with PBS containing 5% FBS, and left standing at 4° C. for 30 minutes. The clone was washed twice with PBS containing 5% FBS, thereafter resuspended in PBS containing 5% FBS, and detected by using a flow cytometer (FC500: Beckman Coulter, Inc.).

CD33 = CD33 (UniProt P20138 18-364, limits assumed); test: cell-based or functional assay
human B7-H3 variant 1 [2] = target: T2, human B7-H3 variant 1; test: cell-based or functional assay
CD30 = target: T3, CD30; test: cell-based or functional assay

Sequence of CD33 (P20138 18-364 limits assumed): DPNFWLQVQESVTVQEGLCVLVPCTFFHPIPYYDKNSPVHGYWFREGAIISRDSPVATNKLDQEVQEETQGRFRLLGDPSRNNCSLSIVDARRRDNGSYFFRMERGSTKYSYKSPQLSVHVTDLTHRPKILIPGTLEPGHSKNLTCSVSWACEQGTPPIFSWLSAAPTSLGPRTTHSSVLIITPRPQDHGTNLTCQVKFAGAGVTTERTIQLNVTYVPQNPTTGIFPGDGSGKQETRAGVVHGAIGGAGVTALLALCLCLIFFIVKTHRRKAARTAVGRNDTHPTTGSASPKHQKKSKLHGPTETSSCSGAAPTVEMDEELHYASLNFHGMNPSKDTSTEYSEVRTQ

Binder	IC50, cytotoxic activity against the CEM_V1-3.1-2 cells (human B7-H3 variant 1 [2])	IC50, cytotoxic activity against the SR cells (CD30)	other results
B1	–	–	IC50, cytotoxic activity against the U251 cells (CD70): < 1 nM
B2	–	–	IC50, cytotoxic activity against the U251 cells (CD70): < 1 nM
B3	–	–	binding result (human B7-H3 variant 1 [1]): binds
B4	–	–	IC50, cytotoxic activity against the HL-60 cells (CD33): < 0.1 nM
B5	–	–	IC50, cytotoxic activity against the NOMO-1 cells (CD33): < 0.1 nM
B6	–	–	IC50, cytotoxic activity against the HL-60 cells (CD33): < 0.1 nM
B7	< 0.1 nM	–	–
B8	< 0.1 nM	–	–
B9	< 0.1 nM	–	–
B10	< 0.1 nM	–	–
B11	< 0.1 nM	–	–
B12	< 0.1 nM	–	–
B13	< 0.1 nM	–	–
B14	< 0.1 nM	–	–
B15	< 0.1 nM	–	–
B16	–	< 0.01 nM	–
B17	–	< 0.01 nM	–
B18	–	< 0.01 nM	–
B19	–	< 0.01 nM	–
B20	–	< 0.01 nM	–
B21	–	< 0.01 nM	–
B22	–	< 0.1 nM	–
